Assay results taken from paper PMC11753425.

Tests used:
[1] = biological target: OrfGExt (purified, WT) (Streptococcus thermophilus); assay: crystal structure; sitting drop, 20°C; WT in 1.26 M ammonium sulfate, 100 mM sodium cacodylate pH 6.5; A204C-A264C in 40% PEG 300, 100 mM potassium phosphate citrate pH 4.2
[2] = biological target: Orf13-V164C-Q280C (not stated (Tn916, an ICE widespread in Enterococcus faecalis and other firmicutes)); assay: SEC-MALS; soluble proteins, Superdex 200 Increase, 50 mM tris-HCl, 100 mM NaCl, pH 8
[3] = biological target: OrfGExt-A204C-A264C (Streptococcus thermophilus); assay: as above
[4] = biological target: OrfGExt-A204C-A264C (Streptococcus thermophilus); assay: crystal structure; sitting drop, 20°C; WT in 1.26 M ammonium sulfate, 100 mM sodium cacodylate pH 6.5; A204C-A264C in 40% PEG 300, 100 mM potassium phosphate citrate pH 4.2
[5] = biological target: full-length OrfG-A204C-A264C (purified) (Streptococcus thermophilus); assay: SEC-MALS; membrane proteins, Superose 6 10/300 Increase, 50 mM tris-HCl pH 8, 300 mM NaCl, 0.1% OGNG
[6] = biological target: full-length OrfG-A204C-A264C produced in S. thermophilus (Streptococcus thermophilus); assay: cross-linking; disulfide cross-linking of engineered cysteines in S. thermophilus; membrane fractions with or without DTT, SDS-PAGE, Western blot with Ab-G

Question: For “OrfGExt (purified, WT) (domain or fragment)”, which stoichiometry N [1] is on record?
Answer: 3

Question: Which stoichiometry N [2] does the source give for Orf13-V164C-Q280C (domain or fragment) here?
Answer: 3

Question: Which stoichiometry N [3] does the source give for “OrfGExt-A204C-A264C (domain or fragment)” here?
Answer: 3

Question: What about the stoichiometry N [4] of the same substance?
Answer: 3

Question: For “full-length OrfG-A204C-A264C (purified) (natural protein)”, which stoichiometry N [5] is on record?
Answer: 3

Question: Which stoichiometry N [6] does the source give for “full-length OrfG-A204C-A264C produced in S. thermophilus (natural protein)” here?
Answer: 3
